The text below walks through data of US11844843 (DYNE THERAPEUTICS, dated 2023).

The target in assay [1] is T1, recombinant cynomolgus monkey (Macaca fascicularis) TfR1 (cynomolgus monkey (Macaca fascicularis), UniProt Q5RDH6 87-760 (Pongo abelii entry), limits assumed).
T1 construct: Recombinant protein; also called cTfR1; cyTfR1
T1 chain: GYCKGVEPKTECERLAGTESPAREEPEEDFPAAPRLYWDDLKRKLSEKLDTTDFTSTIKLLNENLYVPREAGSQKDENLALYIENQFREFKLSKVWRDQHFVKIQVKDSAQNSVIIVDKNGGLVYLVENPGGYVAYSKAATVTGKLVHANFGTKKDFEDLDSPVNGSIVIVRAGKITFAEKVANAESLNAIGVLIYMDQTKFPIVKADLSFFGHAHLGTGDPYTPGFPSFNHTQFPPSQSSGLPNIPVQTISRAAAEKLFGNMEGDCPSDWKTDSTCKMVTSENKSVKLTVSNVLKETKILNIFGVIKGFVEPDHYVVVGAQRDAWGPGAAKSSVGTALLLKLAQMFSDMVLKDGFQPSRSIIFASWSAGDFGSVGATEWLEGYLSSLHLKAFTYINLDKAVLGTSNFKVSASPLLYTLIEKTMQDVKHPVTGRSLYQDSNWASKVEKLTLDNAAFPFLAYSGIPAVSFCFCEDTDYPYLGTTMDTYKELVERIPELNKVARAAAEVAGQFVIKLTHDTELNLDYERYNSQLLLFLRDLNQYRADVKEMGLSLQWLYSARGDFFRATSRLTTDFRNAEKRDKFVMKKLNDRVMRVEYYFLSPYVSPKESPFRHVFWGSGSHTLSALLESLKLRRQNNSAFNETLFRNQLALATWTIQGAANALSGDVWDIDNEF
Description: surface plasmon resonance. Background: SPR reads the build-up and loss of mass on a sensor chip optically.

In assay [2] the target is T2, recombinant human TfR1 (transferrin receptor protein 1) (human, UniProt P02786 89-760).
T2 construct: Recombinant protein in SPR and ELISA; they were assigned to this molecule; also called hTfR1; huTfR1
Description: surface plasmon resonance.

For assay [3], the target named is T1, recombinant cynomolgus monkey (Macaca …). Description: ELISA on cTfR1, unconjugated Fab, % normalized RFUs. (In an ELISA, binding on a coated surface is turned into a signal by an enzyme label.)
For assay [4] the target is unchanged. The experiment in a line: Table 14, unconjugated Fab, d0; method not named (values equal ELISA row of Table 13).
The target of assay [5] is T3, recombinant human TfR2 (transferrin receptor 2) (human, UniProt Q9UP52 105-801, limits assumed).
T3 construct: Recombinant protein in ELISA and SPR; also called hTfR2
T3 sequence (looked up): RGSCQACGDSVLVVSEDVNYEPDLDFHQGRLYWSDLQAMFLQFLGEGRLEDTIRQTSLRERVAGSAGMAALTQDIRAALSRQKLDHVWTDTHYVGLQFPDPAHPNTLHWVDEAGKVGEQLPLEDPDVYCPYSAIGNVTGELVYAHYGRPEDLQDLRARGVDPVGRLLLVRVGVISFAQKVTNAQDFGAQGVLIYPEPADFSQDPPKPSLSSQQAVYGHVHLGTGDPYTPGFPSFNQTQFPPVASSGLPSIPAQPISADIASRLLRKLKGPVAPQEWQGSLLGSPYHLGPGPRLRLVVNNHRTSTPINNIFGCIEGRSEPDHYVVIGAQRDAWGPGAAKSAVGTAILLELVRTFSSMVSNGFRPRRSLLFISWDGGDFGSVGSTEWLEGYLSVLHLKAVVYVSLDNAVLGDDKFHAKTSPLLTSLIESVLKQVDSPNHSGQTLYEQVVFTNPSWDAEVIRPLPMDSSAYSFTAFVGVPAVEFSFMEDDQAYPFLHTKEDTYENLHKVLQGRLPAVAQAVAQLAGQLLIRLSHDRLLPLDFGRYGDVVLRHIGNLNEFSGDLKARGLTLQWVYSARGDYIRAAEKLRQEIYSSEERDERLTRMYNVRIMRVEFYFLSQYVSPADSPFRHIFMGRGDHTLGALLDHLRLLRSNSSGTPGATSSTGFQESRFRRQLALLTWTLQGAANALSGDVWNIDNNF
The experiment in a line: ELISA on plate-coated recombinant human TfR2, anti-(H+L) IgG-A488 secondary. The protocol:
Recombinant human TfR2 protein was plated overnight at […] and was blocked for 1 hour with 1% bovine serum albumin (BSA) in PBS. Serial dilutions of the Fab or a positive control anti-TfR2 antibody were added in 0.5% BSA/TBST for 1 hour. After washing, anti-(H+L) IgG-A488 (Invitrogen #MA5-25932) fluorescent secondary antibody was added at a 1:500 dilution in 0.5% BSA/TBST and the plate was incubated for 1 hour. Relative fluorescence was measured using a Biotek Synergy plate reader at 495 nm excitation and 520 nm emission.

The next assay addresses T4, recombinant rat TfR1 (rat, UniProt Q99376 89-761, limits assumed).
T4 construct: Recombinant protein coated on ELISA plates
The experiment in a line: ELISA on plate-coated recombinant rat TfR1, fluorescent anti-(H+L) IgG secondary. Here is the method:
Serial dilutions of the Fab were added to plates precoated with recombinant human, cynomolgus monkey, mouse, or rat TfR1. After a short incubation, binding of the Fab was quantified by addition of a fluorescently tagged anti-(H+L) IgG secondary antibody and measurement of fluorescence intensity at 495 nm excitation and 520 nm emission.

Assay [6] has as its target T2, recombinant human TfR1 (transferrin …). Description: ELISA on hTfR1, unconjugated Fab, % normalized RFUs.
In assay [7] the target is T1, recombinant cynomolgus monkey (Macaca …). Description: ELISA, recombinant TfR1 coated, unconjugated Fab (row 'Fab binding affinity ELISA').
Assay [8] has as its target T2, recombinant human TfR1 (transferrin …). Described as above.
For assay [9], the target named is T1, recombinant cynomolgus monkey (Macaca …). The experiment in a line: Table 14, unconjugated Fab, d9 (after 9 days at 40 C); method not named.
The target in assay [10] is T2, recombinant human TfR1 (transferrin …). Described as above.

T4 sequence (Q99376 89-761 limits assumed): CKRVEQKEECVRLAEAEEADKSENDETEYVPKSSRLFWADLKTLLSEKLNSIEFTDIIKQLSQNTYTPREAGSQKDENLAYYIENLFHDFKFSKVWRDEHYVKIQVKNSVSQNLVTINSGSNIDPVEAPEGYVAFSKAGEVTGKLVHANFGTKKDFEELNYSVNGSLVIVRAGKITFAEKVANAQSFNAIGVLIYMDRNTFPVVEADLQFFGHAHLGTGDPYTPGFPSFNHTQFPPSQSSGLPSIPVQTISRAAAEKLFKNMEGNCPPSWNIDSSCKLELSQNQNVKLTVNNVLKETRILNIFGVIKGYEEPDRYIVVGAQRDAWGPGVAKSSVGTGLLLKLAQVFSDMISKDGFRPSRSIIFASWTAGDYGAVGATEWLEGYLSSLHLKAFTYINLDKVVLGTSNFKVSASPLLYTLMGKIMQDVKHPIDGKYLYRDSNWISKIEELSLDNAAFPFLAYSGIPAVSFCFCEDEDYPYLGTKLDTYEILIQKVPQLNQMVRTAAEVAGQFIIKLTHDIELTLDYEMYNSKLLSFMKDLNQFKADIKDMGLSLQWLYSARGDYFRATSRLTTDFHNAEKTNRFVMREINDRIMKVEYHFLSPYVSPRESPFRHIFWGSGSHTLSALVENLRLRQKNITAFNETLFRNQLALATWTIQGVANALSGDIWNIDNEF

B1: humanized anti-TfR Fab 3M12 VH4/Vκ3 (Fab, V domains shown)
VH: QVQLQESGPGLVKPSQTLSLTCTVTGYSITSGYYWNWIRQPPGKGLEWIGYITFDGANNYNPSLKNRVSISRDTSKNQFSLKLSSVTAEDTATYYCTRSSYDYDVLDYWGQGTTVTVSS
VL: DIQMTQSPSSLSASVGDRVTITCRASQDISNFLNWYQQKPGQPVKLLIYYTSRLHSGVPSRFSGSGSGTDFTLTISSLQPEDFATYYCQQGHTLPYTFGQGTKLEIKR
notes: also called 3M12 (VH4/Vk3); anti-TfR Fab 3M12 VH4/Vk3
By Kd is commonly meant a measure of binding affinity in units of concentration. As a reminder, the koff is a measure of how fast the partners let go of each other. The term kon denotes the rate constant with which the complex forms. By EC50 is commonly meant the concentration that produces a half-maximal response. For B1, the Kd was determined as 5.18 nM in [1] and 0.768 nM in assay [2]. Further, the figures for the koff in [1] and in [2] were 0.000476 s⁻¹ and 0.000127 s⁻¹, respectively. The kon in assay [1] was found to be 91900 M⁻¹ s⁻¹; in assay [2], 166000 M⁻¹ s⁻¹. The EC50 in [3] was 9.9 nM; in assay [6], 2.1 nM; in assay [7], 2.2 nM; in [8] it was 0.5 nM. The Binding affinity in [4] was determined as 2.2 nM; in assay [9], 16.4 nM; in [10], 0.28 nM. Further, the binding result (in assay [5]; with recombinant rat TfR1) was “no binding (tested: 500 nM)” each time.
